Experimental data as given in IntAct's records for PubMed 19523899.

B1: Tyrosine-protein phosphatase non-receptor type 23 (Mus musculus), Q6PB44 (parent)
chain: MEAVPRMPMIWLDLKEAGDFHFQSAVKKFVLKNYGENPEAYNEELKKLELLRQNAIRVARDFEGCSVLRKYLGQLHYLQSRVPMGSGQEAAVAVTWTEIFSGKSVSHEDIKYEQACILYNLGALHSMLGAMDKRVSEEGMKVSCTHFQCAAGAFAYLREHFPQAFSVDMSRQILTLNVNLMLGQAQECLLEKSMLDNRKSFLVARISAQVVDYYKEACRALENPDTASLLGRIQKDWKKLVQMKIYYFAAVAHLHMGKQAEEQQKFGERVAYFQSALDKLNEAIKLAKGQPDTVQDALRFAMDVIGGKYNSAKKDNDFIYHEAVPALDTLQPVKGAPLVKPLPVNPTDPAVTGPDIFAKLVPMAAHEASSLYSEEKAKLLREMLAKIEDKNEVLDQFMDSMQLDPETVDNLDAYNHIPPQLMEKCAALSVRPDTVKNLVQSMQVLSGVFTDVEASLKDIRDLLEEDELQEQKLQETLGQAGAGPGPSVAKAELAEVRREWAKYMEVHEKASFTNSELHRAMNLHVGNLRLLSGPLDQVRAALPTPALTPEDKAVLQNLKRILAKVQEMRDQRVSLEQQLRELIQKDDITASLVTTDHSEMKKLFEEQLKKYDQLKVYLEQNLAAQDNVLRALTEANVQYAAVRRVLSELDQKWNSTLQTLVASYEAYEDLMKKSQEGKDFYADLESKVATLLERAQSICRAQEAARQQLLDRELKKKAPPPRPTAPKPLLSRREEGEAVEAGDTPEELRSLPPDMMVGPRLPDPFLGTTAPLHFSPGPFPSSTGPATHYLSGPLPPGTYSGPTQLMQPRAAVPMAPATVLYPAPAYTSELGLVPRSSPQHGIVSSPYAGVGPPQPVVGLPSAPPPQLSGPELAMTVRPATTTVDSVQAPISSHTAPRPNPTPALPQPCFPVPQPVPQSVPQPQPLPVPYTYSIGTKQPLPAPYTYSIGTKQHLTGPLPQHQFPPGIPTGFPVPRTGPQAQAQPQPQPQPQPQPQPQPQPQPQPQSQSQPQPQPQPQPQRPAFGPQPTQQPLPFQHPHLFPSQAPGILPPPPPTPYHFTPQPGVLGQPPPTLHTQLYPGPSQDPLPPHSGALPFPSPGPPHPHPTLAYGPAPSPRPLGPQATPVSIRGPPPASQPTPSPHLVPSPAPSPGPGPVPSRPPTAEPPPCLRRGAAAADLLSSSPESQHGGTQPPGGGQPLLQPTKVDAAEGRRPQALRLIEQDPYEHPERLQQLQQELEAFRGQLGDAGALDAIWRELQEAQEHDARGRSIAIARCYSLKNRHQDVMPYDSNRVVLRSGKDDYINASCVEGLSPYCPPLVATQAPLPGTAADFWLMVHEQKVSVIVMLVSEAEMEKQKVARYFPTERGQPMVHGALSVALSSIRTTETHVERVLSLQFRDQSLKRSLVHLHFPTWPELGLPDSPGNLLRFIQEVHAHYLHQRPLHTPIVVHCSSGVGRTGAFALLYAAVQEVEAGNGIPELPQLVRRMRQQRKHMLQEKLHLKFCHEALVRHVEQVLQRHGVPPPGKPVASVNISQKNHLPQDSQDLVLGGDVPISSIQATIAKLSIRPLGGLDSPAASLPGLVEPPGLPPASLPESTPVPSSSPPPLSSPLPEAPQPEEEPSVPEAPSLGPPSSSLELLASLTPEAFSLDSSLRGKQRMSKQNFLQAHNGQGLRAAQPTDDPLSLLDPLWTLNKT
partner: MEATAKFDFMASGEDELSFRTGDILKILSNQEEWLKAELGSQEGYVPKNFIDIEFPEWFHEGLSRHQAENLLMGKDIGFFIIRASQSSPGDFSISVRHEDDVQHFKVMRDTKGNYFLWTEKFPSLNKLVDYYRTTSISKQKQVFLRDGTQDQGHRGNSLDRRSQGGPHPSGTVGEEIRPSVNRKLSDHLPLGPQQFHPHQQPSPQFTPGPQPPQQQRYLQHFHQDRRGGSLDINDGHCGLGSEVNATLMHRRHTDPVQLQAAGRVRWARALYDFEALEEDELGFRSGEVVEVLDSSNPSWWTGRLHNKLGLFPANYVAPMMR

Variants of: B1
Settings: with grap2_mouse Grap2, O89100

| Variant | effect of a mutation on the interaction |
| --- | --- |
| P720A;R722A | disrupting interaction |
| K727H | decreasing interaction strength |
| K727A | decreasing interaction strength |
| K727A;P728A | disrupting interaction strength |
| R722A | decreasing interaction |
